Experimental data reported in patent publication US20240261333A1 (published 2024).

Columns and labels:
Test in all cases: anti-FLAG co-IP from lysate of N-FLAG B3GNT2 cells, mass spectrometry
IPO7 = molecular target: T1, IPO7 (human, UniProt O95373 1-1038)
T1 construct: also called NP_006382.1
Experimental: (§1) Cells were plated in 10-cm cell culture dishes and grown to 60-80% confluency. For each condition, two biological replicates were harvested for co-IP. Cells were washed with PBS and 4 mL of lysis buffer (20 mM HEPES, 1% Triton X-100, 150 mM NaCl, 1 mM EDTA, and 10% glycerol) containing protease inhibitor cocktail was added. Cells were scraped and lysate was incubated at 4° C. under rotary agitation for 1 h. Lysate was centrifuged at 14,000×g for 10 min at 4° C. Supernatant was transferred to a new tube and an aliquot was taken as the input. […] For Western blots, 10 μg/mL Chicken Anti-FLAG (Aves labs ET-DY100) and IgY control (R&D Systems AB-101-C) antibodies were biotinylated (Thermo Fisher Scientific 90407) and added to the respective conditions. Lysates with antibodies were incubated at 4° C. under rotary agitation overnight. For each mL of lysate, 50 μL of Pierce Protein A/G Magnetic Beads (Mass spectrometry; Thermo Fisher Scientific 88803) or Pierce Streptavidin Magnetic Beads (Western blot; Thermo Fisher Scientific 88817) was washed twice with lysis buffer. Lysates with antibodies were added to the beads and incubated at 4° C. under rotary agitation for 4 h. Beads were washed with lysis buffer 3 times and resuspended in lysis buffer for storage.
(§2) Magnetic beads were resuspended in 100 mM Tris pH 7.8, reduced, alkylated and digested with trypsin at 37° ° C. overnight. This solution was subjected to solid phase extraction to concentrate the peptides and remove unwanted reagents followed by injection onto a Shimadzu HPLC with fraction collector. Eight fractions were collected and after concentration were injected on a Waters NanoAcquity HPLC equipped with a self-packed Aeris 3 μm C18 analytical column 0.075 mm by 20 cm, (Phenomenex). Peptides were eluted using standard reverse-phase gradients. The effluent from the column was analyzed using a Thermo Orbitrap Elite mass spectrometer (nanospray configuration) operated in a data dependent manner for 54 minutes. The resulting fragmentation spectra were correlated against the known database using Proteome Discover 1.4 (Thermo Fisher Scientific).

SFXN3 = molecular target: T2, SFXN3 (human, UniProt Q9BWM7 1-321)
T2 construct: also called NP_112233.2
T2 sequence (looked up): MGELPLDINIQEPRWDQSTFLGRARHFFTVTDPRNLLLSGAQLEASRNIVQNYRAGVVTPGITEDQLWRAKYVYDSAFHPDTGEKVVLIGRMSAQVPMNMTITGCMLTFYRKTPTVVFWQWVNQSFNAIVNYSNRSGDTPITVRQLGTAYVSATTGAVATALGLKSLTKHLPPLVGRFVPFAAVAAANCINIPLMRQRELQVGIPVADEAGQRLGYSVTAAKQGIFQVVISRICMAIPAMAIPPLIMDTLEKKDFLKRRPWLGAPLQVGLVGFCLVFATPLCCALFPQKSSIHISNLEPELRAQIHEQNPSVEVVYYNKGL
Experimental: as §1, §2

HDGFL2 = molecular target: T3, HDGFL2 (human, UniProt Q7Z4V5 1-671)
T3 construct: also called NP_001001520.1 (+4)
T3 sequence (Q7Z4V5 whole entry): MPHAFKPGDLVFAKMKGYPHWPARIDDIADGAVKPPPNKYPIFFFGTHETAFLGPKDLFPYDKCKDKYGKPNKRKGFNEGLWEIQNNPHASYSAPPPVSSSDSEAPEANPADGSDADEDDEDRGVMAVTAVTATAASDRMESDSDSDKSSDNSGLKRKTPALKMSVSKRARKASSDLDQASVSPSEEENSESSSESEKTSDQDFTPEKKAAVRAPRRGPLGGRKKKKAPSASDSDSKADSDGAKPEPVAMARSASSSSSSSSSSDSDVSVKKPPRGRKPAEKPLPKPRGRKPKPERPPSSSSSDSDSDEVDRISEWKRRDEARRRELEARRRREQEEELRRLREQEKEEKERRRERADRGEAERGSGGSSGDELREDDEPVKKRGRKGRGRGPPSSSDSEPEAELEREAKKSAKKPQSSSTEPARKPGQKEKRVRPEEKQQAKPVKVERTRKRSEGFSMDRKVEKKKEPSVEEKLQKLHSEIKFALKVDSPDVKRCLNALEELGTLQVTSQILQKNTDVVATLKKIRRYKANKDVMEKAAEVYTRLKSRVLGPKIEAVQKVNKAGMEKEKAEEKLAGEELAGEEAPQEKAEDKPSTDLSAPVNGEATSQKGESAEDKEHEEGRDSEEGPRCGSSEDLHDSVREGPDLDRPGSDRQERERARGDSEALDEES
Experimental: as §1, §2

H1FX = molecular target: T4, H1FX (human, UniProt Q92522 2-213)
T4 construct: also called NP_006017.1
T4 sequence (Q92522 2-213 limits assumed): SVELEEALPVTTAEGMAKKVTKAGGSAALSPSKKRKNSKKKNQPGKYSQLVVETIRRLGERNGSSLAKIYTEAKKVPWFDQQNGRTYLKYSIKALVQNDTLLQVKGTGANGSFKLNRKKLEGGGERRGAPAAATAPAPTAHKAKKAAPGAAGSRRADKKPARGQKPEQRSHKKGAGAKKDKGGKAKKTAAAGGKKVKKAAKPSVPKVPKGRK
Experimental: as §1, §2

TECR = molecular target: T5, TECR (human, UniProt Q9NZ01 1-308)
T5 construct: also called NP_612510.1 (+2)
T5 sequence (looked up): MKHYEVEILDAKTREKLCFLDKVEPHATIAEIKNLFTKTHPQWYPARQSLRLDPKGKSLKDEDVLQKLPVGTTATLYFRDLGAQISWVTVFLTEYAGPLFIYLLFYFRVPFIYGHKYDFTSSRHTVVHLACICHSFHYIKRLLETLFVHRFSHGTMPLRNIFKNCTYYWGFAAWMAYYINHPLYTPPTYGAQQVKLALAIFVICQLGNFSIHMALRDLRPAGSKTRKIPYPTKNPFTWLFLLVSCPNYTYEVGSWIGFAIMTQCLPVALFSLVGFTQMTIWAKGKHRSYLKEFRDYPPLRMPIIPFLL
Experimental: as §1, §2

ATAD3A = molecular target: T6, ATAD3A (human, UniProt Q9NVI7 2-586)
T6 construct: also called NP_001164006.1 (+2)
T6 sequence (looked up): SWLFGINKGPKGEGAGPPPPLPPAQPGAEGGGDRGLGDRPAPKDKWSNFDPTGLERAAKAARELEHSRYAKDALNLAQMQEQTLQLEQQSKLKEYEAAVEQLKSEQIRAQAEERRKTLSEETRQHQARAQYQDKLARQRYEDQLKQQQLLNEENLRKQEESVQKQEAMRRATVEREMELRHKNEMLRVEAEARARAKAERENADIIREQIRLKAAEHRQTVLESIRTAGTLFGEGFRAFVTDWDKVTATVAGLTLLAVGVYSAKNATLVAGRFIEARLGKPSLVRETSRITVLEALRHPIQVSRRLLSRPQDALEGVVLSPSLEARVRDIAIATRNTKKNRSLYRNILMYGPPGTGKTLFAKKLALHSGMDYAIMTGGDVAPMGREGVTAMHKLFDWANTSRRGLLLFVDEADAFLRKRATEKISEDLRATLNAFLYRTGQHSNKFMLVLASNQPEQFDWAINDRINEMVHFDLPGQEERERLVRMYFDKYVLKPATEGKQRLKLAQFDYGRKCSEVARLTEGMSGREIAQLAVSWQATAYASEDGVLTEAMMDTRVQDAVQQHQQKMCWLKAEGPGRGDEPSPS
Experimental: as §1, §2

DNAJA3 = molecular target: T7, DNAJA3 (human, UniProt Q96EY1-2 66-453, limits assumed)
T7 construct: also called NP_001128582.1 (+1)
T7 sequence (looked up): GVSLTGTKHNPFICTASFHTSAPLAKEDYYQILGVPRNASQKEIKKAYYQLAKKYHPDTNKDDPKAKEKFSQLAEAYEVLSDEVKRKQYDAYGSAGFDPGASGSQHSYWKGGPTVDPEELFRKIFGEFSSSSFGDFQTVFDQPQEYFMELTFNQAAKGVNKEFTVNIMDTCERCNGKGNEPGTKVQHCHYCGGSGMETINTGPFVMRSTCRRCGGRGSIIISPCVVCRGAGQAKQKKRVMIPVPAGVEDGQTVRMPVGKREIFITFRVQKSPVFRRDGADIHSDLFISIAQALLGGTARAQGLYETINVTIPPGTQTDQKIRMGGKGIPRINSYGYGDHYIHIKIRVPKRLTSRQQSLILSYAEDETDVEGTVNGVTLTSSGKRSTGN
Experimental: as §1, §2

Measured: co-IP mass spectrometry count

T1 sequence (O95373 whole entry): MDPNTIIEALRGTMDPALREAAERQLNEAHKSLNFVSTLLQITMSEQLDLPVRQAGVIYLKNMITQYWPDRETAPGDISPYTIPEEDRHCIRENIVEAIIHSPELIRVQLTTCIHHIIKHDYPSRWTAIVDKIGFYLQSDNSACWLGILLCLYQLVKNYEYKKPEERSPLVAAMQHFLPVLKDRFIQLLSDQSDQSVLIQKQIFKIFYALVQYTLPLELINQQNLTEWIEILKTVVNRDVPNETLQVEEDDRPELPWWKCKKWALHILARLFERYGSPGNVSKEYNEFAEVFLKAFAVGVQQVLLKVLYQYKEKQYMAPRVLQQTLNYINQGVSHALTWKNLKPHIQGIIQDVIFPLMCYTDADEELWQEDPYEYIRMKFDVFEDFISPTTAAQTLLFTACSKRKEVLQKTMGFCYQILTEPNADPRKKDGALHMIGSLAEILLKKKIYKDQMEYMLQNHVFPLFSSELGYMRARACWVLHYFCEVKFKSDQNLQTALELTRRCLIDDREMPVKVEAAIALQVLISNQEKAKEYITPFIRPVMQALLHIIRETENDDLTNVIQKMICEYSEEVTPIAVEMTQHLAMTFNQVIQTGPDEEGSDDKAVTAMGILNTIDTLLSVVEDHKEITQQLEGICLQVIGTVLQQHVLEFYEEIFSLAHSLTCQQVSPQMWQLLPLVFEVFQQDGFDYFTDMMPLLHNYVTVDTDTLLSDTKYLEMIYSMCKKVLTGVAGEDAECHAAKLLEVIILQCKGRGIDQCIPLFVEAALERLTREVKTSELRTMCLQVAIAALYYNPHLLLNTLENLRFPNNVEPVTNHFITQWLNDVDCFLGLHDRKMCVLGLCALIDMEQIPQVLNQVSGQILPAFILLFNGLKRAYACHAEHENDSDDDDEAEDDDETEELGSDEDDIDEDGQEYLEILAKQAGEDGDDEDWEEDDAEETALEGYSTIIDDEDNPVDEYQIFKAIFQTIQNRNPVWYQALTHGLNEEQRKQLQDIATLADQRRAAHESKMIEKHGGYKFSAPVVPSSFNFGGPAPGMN

B1: N-terminal FLAG tagged B3GNT2 (enzyme, human, UniProt Q9NY97 1-397, looked up)
chain: MSVGRRRIKLLGILMMANVFIYFIMEVSKSSSQEKNGKGEVIIPKEKFWKISTPPEAYWNREQEKLNRQYNPILSMLTNQTGEAGRLSNISHLNYCEPDLRVTSVVTGFNNLPDRFKDFLLYLRCRNYSLLIDQPDKCAKKPFLLLAIKSLTPHFARRQAIRESWGQESNAGNQTVVRVFLLGQTPPEDNHPDLSDMLKFESEKHQDILMWNYRDTFFNLSLKEVLFLRWVSTSCPDTEFVFKGDDDVFVNTHHILNYLNSLSKTKAKDLFIGDVIHNAGPHRDKKLKYYIPEVVYSGLYPPYAGGGGFLYSGHLALRLYHITDQVHLYPIDDVYTGMCLQKLGLVPEKHKGFRTFDIEEKNKNNICSYVDLMLVHSRKPQEMIDIWSQLQSAHLKC
notes: Bait of the co-IP; pulled down from cell lysate with mouse anti-FLAG antibody; also called N-FLAG B3GNT2; N-term FLAG; not shown: N-terminal FLAG tag
0: IPO7 | SFXN3 | HDGFL2 | H1FX | TECR | ATAD3A | DNAJA3
